Laboratory results from the supplement of paper PMC11780869.

tested on: Bacillus subtilis; experiment: cleaved RNA product abundance (RNA/gDNA barcode ratio) relative to median wild-type variant (ratio to wild type); higher = more accumulation of the downstream cleavage product; conditions: experiment (reporter, strain, medium): exp 2b: truncated aprE reporter, strain BJT200; cleavage site: cggR-gapA (positions -7 to +36 mutated)
How it was run: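 Reporter mRNAs based on truncated aprE or tetM carried barcoded, mutagenized RNase Y cleavage-site windows built from oligos with a 9% error rate and were integrated into the B. subtilis chromosome. Cultures grew in LB at 37°C from OD600 0.0003 to 0.3. Cleaved RNA was gel-selected, reverse transcribed and barcode-sequenced together with genomic DNA barcodes, and UMIs were collapsed. Cleaved product abundance is the per-construct ratio of RNA to gDNA barcodes, scaled to the median of constructs carrying the unmutated site.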

Sequence	cleaved RNA product abundance
ACAGACGAAGGAGCCGCAAACAAGTGATTAAGGGATGAATAATCCCTCAATATAAATATCTCTCACTTATTTAAA	0.223
ACAGACGAAGGAGCCGCAAAGAAGTTATTAAGAGATGAACAATCCCTCAATATAAATATCTCTCACTTATTTAAA	0.0784
ACAGACGAAGGAGCCGCAAAGATATTATTAAGGGATGAATAATCCCTCAATATAAATATCTCTCACTTATTTAAA	0.93
ACAGACGAAGGAGCCGCAAAGAAGTTATTAAGGGATGAATAATCCTTCAATAAAAATATCTCTCACTTATTTAAA	0.185
ACAGACGAAGGAGCCGCAAAGAAGTTATTATGGGATGAATAATCTCTCAATATAAATATCTCTCACTTATTTAAA	0.224
ACAGACGAAGGAGCCGCAAAGAAGTTATGAAGGGAGGAATAATCCCTCAATATAAATATCTCTCACTTATTTAAA	0.22
ACAGACGAAGGAGCCGCAAAGAAGTTATTAAGTGATGAATATTCCCTAAATATAAATATCTCTCACTTATTTAAA	0.115
ACAGACGAAGGAGCCGCAAAGAAGTTATTAGTGGATGAATAATCCCTCAATATAAATATCTCTCACTTATTTAAA	0.295
ACAGACGAAGGAGCCGCAAAGAAGTTATGAAGGGATGAATAATCCCTAAATATAAATATCTCTCACTTATTTAAA	0.38
ACAGACGAAGGAGCCGCAAAAAATTTATTAAGGGATGAATAATCCCTCAATATAAATATCTCTCACTTATTTAAA	1.19
ACAGACGAAGGAGCCGCAAAGAAGTTATTAAGGCATGAATAATCCCTCAAAATAAATATCTCTCACTTATTTAAA	0.0982
ACAGACGAAGGAGCCGCAAAGAAATTATTAAGGGGTGAATAATCCCTCAATATAAATATCTCTCACTTATTTAAA	0.541
ACAGACGAAGGAGCCGCAAAGAAGTTATTAAGGGATGACTAATCCCTCAATATATATATCTCTCACTTATTTAAA	0.293

same assay, conditions: experiment (reporter, strain, medium): exp 4a: truncated aprE reporter, strain BJT201 with 2% xylose (RNase J1 expressed); cleavage site: cggR-gapA (positions -7 to +36 mutated)

Sequence	cleaved RNA product abundance
ACAGACGAAGGAGCCGCAAAGACGTTATTAAGGGATGAATAATCCCTCAACATAAATATCTCTCACTTATTTAAA	0.316
ACAGACGAAGGAGCCGCAAAGAACTTATTAAGGGAAGAATAATCCCTCAATATAAATATCTCTCACTTATTTAAA	0.235
ACAGACGAAGGAGCCGCAAAGAAGTCATTAAGGGATGAATAATGCCTCAATATAAATATCTCTCACTTATTTAAA	0.13
ACAGACGAAGGAGCCGCAAAGAAGTTATTAAGGGATCAATGATCCCTCAATATAAATATCTCTCACTTATTTAAA	1.15
ACAGACGAAGGAGCCGCAAACAAGTGATTAAGGGATGAATAATCCCTCAATATAAATATCTCTCACTTATTTAAA	0.27
ACAGACGAAGGAGCCGCAAATAAGTTATTAAGGGCTGAATAATCCCTCAATATAAATATCTCTCACTTATTTAAA	0.627
ACAGACGAAGGAGCCGCAAAGAAGTTATTAAGAGATGAACAATCCCTCAATATAAATATCTCTCACTTATTTAAA	0.205
ACAGACGAAGGAGCCGCAAAAAAGTTATGAAGGGATGAATAATCCCTCAATATAAATATCTCTCACTTATTTAAA	0.453
ACAGACGAAGGAGCCGCAAAGATATTATTAAGGGATGAATAATCCCTCAATATAAATATCTCTCACTTATTTAAA	0.459
ACAGACGAAGGAGCCGCAAAGAAGTCATTAACGGATGAATAATCCCTCAATATAAATATCTCTCACTTATTTAAA	0.128
ACAGACGAAGGAGCCGCAAAGTAGTTATTAAGGGATGAATAATCCCTCATTATAAATATCTCTCACTTATTTAAA	0.396
ACAGACGAAGGAGCCGCAAAGAATTTATTAAGGGATGAATAATGCCTCAATATAAATATCTCTCACTTATTTAAA	0.177
ACAGACGAAGGAGCCGCAAAGAAGTTATTATGGGATGAATAATCTCTCAATATAAATATCTCTCACTTATTTAAA	0.285
ACAGACGAAGGAGCCGCAAACTAGTTATTAAGGGATGAATAATCCCTCAATATAAATATCTCTCACTTATTTAAA	0.991
ACAGACGAAGGAGCCGCGAAGAAGTTATTAAGGGATGAATAATCGCTCAATATAAATATCTCTCACTTATTTAAA	0.134
ACAGACGAAGGAGCCGCAAACAAGTTATTAAGGGATGTATAATCCCTCAATATAAATATCTCTCACTTATTTAAA	0.478
ACAGACGAAGGAGCCGCAAAGAAGTTATAAAGGGATGAATAATCCCTCAATATAAATTTCTCTCACTTATTTAAA	0.387
ACAGACGAAGGAGCCGCAAAGAAGTTATTAGTGGATGAATAATCCCTCAATATAAATATCTCTCACTTATTTAAA	0.385
ACAGACGAAGGAGCCGCAAAGAAGTTATGAAGGGATGAATAATCCCTAAATATAAATATCTCTCACTTATTTAAA	0.711
ACAGACGAAGGAGCCGCAAACAAGTTATAAAGGGATGAATAATCCCTCAATATAAATATCTCTCACTTATTTAAA	0.408
ACAGACGAAGGAGCCGCAACGAAGTAATTAAGGGATGAATAATCCCTCAATATAAATATCTCTCACTTATTTAAA	0.347
ACAGACGAAGGAGCCGCAAAAAATTTATTAAGGGATGAATAATCCCTCAATATAAATATCTCTCACTTATTTAAA	0.66
ACAGACGAAGGAGCCGCAAAGAAGTTATTAAGGCATGAATAATCCCTCAAAATAAATATCTCTCACTTATTTAAA	0.141
ACAGACGAAGGAGCCGCAAAGAATTTATTAAGGGATGAATAGTCCCTCAATATAAATATCTCTCACTTATTTAAA	0.713
ACAGACGAAGGAGCCGCAAAGAAATTATTAAGGGGTGAATAATCCCTCAATATAAATATCTCTCACTTATTTAAA	0.734
ACAGACGAAGGAGCCGCAAAGAGGTTATTAAGAGATGAATAATCCCTCAATATAAATATCTCTCACTTATTTAAA	0.126

same assay, conditions: experiment (reporter, strain, medium): exp 8a: truncated aprE reporter, strain BJT201 with 2% xylose (RNase J1 expressed); cleavage site: glnRA (positions -5 to +31 mutated)

Sequence	cleaved RNA product abundance
CGACATGTCCCGCTTCTTTCATTAATCCGTTAGCAACTGTTCAGCTATATACATTTACCTTTTAAGAGGAGGAAT	0.344
CGACATGTCCCGCTTCTTTCATTAATCGGTTAGCAACTGTTTTGCTATATACATTAACCTTTTAAGAGGAGGAAT	1.51
CGACATGTCCCGCTTCTTTCATTAATCCGTTAGCAACAGTTTTGCTATATACATTTACTTTTTAAGAGGAGGAAT	1.18
CGACATGTCCCGCTTCTTTCATTAATCCGTTAGAAACTGTTTTGCTGTATACATTTACCTTTTAAGAGGAGGAAT	0.085
CGACATGTCCCGCTTCTTTCATTAATCCGTTAGCAACTGTTTAGCTTTATACATTTACCTTTTAAGAGGAGGAAT	0.192
CGACATGTCCCGCTTCTTTCATTAATTCGTTAGCAACTGTTTTGCTATTTACATTTACCTTTTAAGAGGAGGAAT	0.134
CGACATGTCCCGCTTCTTTCATTAATCCGTTACCAACTTTTTTGCTATATACATTTACCTTTTAAGAGGAGGAAT	0.225
CGACATGTCCCGCTTCTTTCATTAATCCGTAAGCAACTGTTTTGCTATATACATTTACTTTTTAAGAGGAGGAAT	0.641
CGACATGTCCCGCTTCTTTCATTAATCCGTTAGAAACTGCTTTGCTATATACATTTACCTTTTAAGAGGAGGAAT	0.146
CGACATGTCCCGCTTCTTTCATTAATCCGTTACCAACTGTTTTGCTATATACATTTACATTTTAAGAGGAGGAAT	0.209
CGACATGTCCCGCTTCTTTCATTAATCCGTTAGAAACTGTTTTGCTAGATACATTTACCTTTTAAGAGGAGGAAT	0.255
CGACATGTCCCGCTTCTTTCATTAATCCGTTAGCAACTGTTTAGCTATATACATTTACTTTTTAAGAGGAGGAAT	0.591
CGACATGTCCCGCTTCTTTCATTAATCCGTTAGCAACTGTTTTGCTATATACATTTACCCTTTTAAGAGGAGGAA	0.756
CGACATGTCCCGCTTCTTTCATTAATCCGTTAGCAACTGTTTTGCTTTATACATTTACCCTTTAAGAGGAGGAAT	0.206
CGACATGTCCCGCTTCTTTCATTAATCCGTTAGCAACTCTTTTGATATATACATTTACCTTTTAAGAGGAGGAAT	0.51
CGACATGTCCCGCTTCTTTCATTAATCTGTTAGCAACTTTTTTGCTATATACATTTACCTTTTAAGAGGAGGAAT	0.706
CGACATGTCCCGCTTCTTTCATTAATCCGTTAGAAACTGTTTTGCTATATACAGTTACCTTTTAAGAGGAGGAAT	0.361
CGACATGTCCCGCTTCTTTCATTAATGCGTTAGCAACTGTTTTGCTATATACATTCACCTTTTAAGAGGAGGAAT	0.329
